This data set deals with K4 kissing-loop RNA reporter. Kind of data set: apparent KD of K4 kissing-loop reporter; higher = weaker reporter binding. The conditions noted are these: Eterna round: R107. The method, then: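 RNA-MaP round R107: designed RNA switches with theophylline, tryptophan, arginine or FMN aptamers are transcribed on-chip within common flanks. They are titrated with a labelled K4 kissing-loop RNA reporter in RNA-MaP buffer (100 mM Tris pH 7.5, 80 mM KCl, 4 mM MgCl2), without ligand or with the indicated ligand. Median apparent KD per design.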

Setting [1] is: input ligand: theophylline 20 uM.
The mark [2] stands for this setting: input ligand: tryptophan 2.4 mM.

The values that follow come from the supplement of paper PMC9170038.
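Note: bound reporter read as fluorescence of individual clusters on recovered sequencing chips by microscopy, with normalized cluster intensities fitted with a binding model.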

As for “GGUAGCAUGGCGGCCGCCACUACCUAGUGAUGUUAGGCUGUGGACAUAGGAGCAAAAUAAAUAUGUAGGACCGGGCCAUGCUACC”, the “apparent KD of K4 kissing-loop reporter” value turned out to be 127 nM (input ligand: FMN 200 uM); 101 nM (input ligand: arginine 13.2 mM); 121 nM (input ligand: none); 126 nM under setting [1]; 123 nM under setting [2].

With “GGUAGCAUGGCGGCCGCCACUACCUAGUGAUGUUAGGCUGUGGACAUAGGAGCAAGAUAAAUAUGUAGGACCGGGCCAUGCUACC”, the “apparent KD of K4 kissing-loop reporter” value is 129 nM (input ligand: FMN 200 uM); 88.8 nM (input ligand: arginine 13.2 mM); 103 nM (input ligand: none); 119 nM under setting [1]; 111 nM under setting [2].

Consider “AAACAUCACUGGGAGUGAUGUUCUCAGUGACGAGGACCGGUACGGCCGCCACUCGCGAGAGAUUUAGUCUAGUCUUGACUGCAUU [Excl Tryptophan A V12]”, for which the “apparent KD of K4 kissing-loop reporter” value reads like this: (input ligand: FMN 200 uM) 299 nM; (input ligand: arginine 13.2 mM) 303 nM; (input ligand: none) 264 nM; under setting [1], 372 nM; under setting [2], 331 nM.

For the sequence “GCCGUACGCAUGGAUACCAGCAAGCAUAGCAGGAAACUGCUAUGCACCAGUGAUGUUGGAUGCCCUUGGCAGCCAUGCGUACGGC”, the “apparent KD of K4 kissing-loop reporter” value (input ligand: FMN 200 uM) was determined as 1250 nM; the “apparent KD of K4 kissing-loop reporter” value (input ligand: arginine 13.2 mM) was 754 nM; the “apparent KD of K4 kissing-loop reporter” value (input ligand: none) was found to be 926 nM; the “apparent KD of K4 kissing-loop reporter” value under setting [1] came to 439 nM; the “apparent KD of K4 kissing-loop reporter” value under setting [2] was 1110 nM.

Take “AUGCGCGUGCGAUGGAAAUCGCACGCGCAUCGAGGACCGGUACGGCCGCCACUCGCUCGCGCCGAGUGAUGUUCGGCCGGCGAAC [#2 SameState - Tryptophan_A Attempt #3 (HarryS)]”: the “apparent KD of K4 kissing-loop reporter” value (input ligand: FMN 200 uM) came to 180 nM; the “apparent KD of K4 kissing-loop reporter” value (input ligand: arginine 13.2 mM) is 162 nM; the “apparent KD of K4 kissing-loop reporter” value (input ligand: none) stood at 283 nM; the “apparent KD of K4 kissing-loop reporter” value under setting [1] was determined as 329 nM; the “apparent KD of K4 kissing-loop reporter” value under setting [2] worked out at 599 nM.

“CACGUUUACCAAGGAUAUGGUCUGCCGCGGAACCGUUCAAGUGAUGUUUGAUUCGAGUAUUAAUCUCCAGAAGGUGGUAGUACAG [theeternabot_exclusion_KL_FMN_B_6]”: the “apparent KD of K4 kissing-loop reporter” value is 247 nM (input ligand: FMN 200 uM); 353 nM (input ligand: arginine 13.2 mM); 417 nM (input ligand: none); 476 nM under setting [1]; 342 nM under setting [2].

For “GUGCAAAGCACCGGCACGAGCAGCUUAAAGGAGGAUAUGACGAAAGUCAGAAGGUUUAGUGAUGUUAGGCCUUGCUUGAGUCGAA [#01 K4 FMN A Exclusion]”, the “apparent KD of K4 kissing-loop reporter” value (input ligand: FMN 200 uM) is 326 nM; the “apparent KD of K4 kissing-loop reporter” value (input ligand: arginine 13.2 mM) was 265 nM; the “apparent KD of K4 kissing-loop reporter” value (input ligand: none) stood at 282 nM; the “apparent KD of K4 kissing-loop reporter” value under setting [1] came to 413 nM; the “apparent KD of K4 kissing-loop reporter” value under setting [2] stood at 270 nM.

As for “UGCAGUGAUGUUGCGAGUGGCAGAUACGAAGGAGCGUGGUGAGACACAGGUAGGUCGCGUAUCGAAAUUGCUGUCACUAAAAUGC [#8]”, the “apparent KD of K4 kissing-loop reporter” value runs as follows: (input ligand: FMN 200 uM) 385 nM; (input ligand: arginine 13.2 mM) 411 nM; (input ligand: none) 501 nM; under setting [1], 425 nM; under setting [2], 460 nM.

As to “GGGAGCAAAGCUCCCGGAUGCUAUUACCAGUAGGAUAUCUGGAAACAGAGAAGGGCUAAGCCAGUGAUGUUGGUUUCGAGCAUCC”, the “apparent KD of K4 kissing-loop reporter” value runs as follows: (input ligand: FMN 200 uM) 596 nM; (input ligand: arginine 13.2 mM) 575 nM; (input ligand: none) 754 nM; under setting [1], 575 nM; under setting [2], 514 nM.

Take “UACUAUAGUGAUGUUAUAGAUAAACCAGAUACCAGUGUAACAUAACACCCUUGGCAGCUGAUGAGGGAAGAUAUCAAAAGAUAUC [AstroSTH-A#9newdesignED4.70]”: the “apparent KD of K4 kissing-loop reporter” value (input ligand: FMN 200 uM) was found to be 218 nM; the “apparent KD of K4 kissing-loop reporter” value (input ligand: arginine 13.2 mM) turned out to be 218 nM; the “apparent KD of K4 kissing-loop reporter” value (input ligand: none) was found to be 202 nM; the “apparent KD of K4 kissing-loop reporter” value under setting [1] was 247 nM; the “apparent KD of K4 kissing-loop reporter” value under setting [2] stood at 199 nM.

“UGUGUUGUUUUGAUGUUUGGUGUUGCAUGGCAGGAUAUCGUAGAGGCGAGAAGGGCUUGUGAGCGGUAUGAGUGAUGUUUGUAGG [bbgbmullin]”: the “apparent KD of K4 kissing-loop reporter” value was 433 nM (input ligand: FMN 200 uM); 270 nM (input ligand: arginine 13.2 mM); 406 nM (input ligand: none); 400 nM under setting [1]; 299 nM under setting [2].

Regarding “AGCAAAACCAAAGGAUAUUGGCAGUCGAUGUACCAUGUUCCCGUAGCAGGUUGAGUGAUGUUUAAGCAAGAAGGUUGGCGUUUGG [theeternabot_exclusion_KL_FMN_B_12]”, the “apparent KD of K4 kissing-loop reporter” value is, setting by setting: (input ligand: FMN 200 uM) 560 nM; (input ligand: arginine 13.2 mM) 302 nM; (input ligand: none) 436 nM; under setting [1], 457 nM; under setting [2], 368 nM.

As for “GCAGUGAUGUUGCGCGGGUACGGUAGAGUGCGAGGACCGGUACGGCCGCCACUCGUACGGAACUGGCUAAUAUAUGGAUAGGUGA [V]”, the “apparent KD of K4 kissing-loop reporter” value (input ligand: FMN 200 uM) is 496 nM; the “apparent KD of K4 kissing-loop reporter” value (input ligand: arginine 13.2 mM) came out at 318 nM; the “apparent KD of K4 kissing-loop reporter” value (input ligand: none) was found to be 446 nM; the “apparent KD of K4 kissing-loop reporter” value under setting [1] came to 406 nM; the “apparent KD of K4 kissing-loop reporter” value under setting [2] came out at 243 nM.

In the case of “CGGCGGAGUGAUGUUCCACCUACUGCGGAUACCAGCUUUGCCAGAGGCCCUUGGCAGCCGCACGGCUCAGUGAUGUUGGGUUGCG [Same State Theophylline A G12]”, the “apparent KD of K4 kissing-loop reporter” value stood at 237 nM (input ligand: FMN 200 uM); 162 nM (input ligand: arginine 13.2 mM); 227 nM (input ligand: none); 219 nM under setting [1]; 195 nM under setting [2].

As for “GGCCGCAAGGCGAGCGCUCCCACUCCGGAAGGAGCGCCCGUAAGGGCAGGUAGGUCGCCGGAGUGAUGUUCCGGUGGAGGGCUCG [#2 Exclusion - Arginine A Attempt #17 (Inspired by Omei)]”, the “apparent KD of K4 kissing-loop reporter” value by setting is: (input ligand: FMN 200 uM) 565 nM; (input ligand: arginine 13.2 mM) 239 nM; (input ligand: none) 547 nM; under setting [1], 443 nM; under setting [2], 460 nM.

“GGUAGCAUGGCGGCCGCCACUUCAAAUGGAGUGAUGUUCCAAGGCAUCGCGAAAGCGAUGCCAGGAAGGACCGGGCCAUGCUACC”: the “apparent KD of K4 kissing-loop reporter” value was 831 nM (input ligand: FMN 200 uM); 859 nM (input ligand: arginine 13.2 mM); 522 nM (input ligand: none); 566 nM under setting [1]; 143 nM under setting [2].

For the sequence “AUUUGUUUAUGUGAUACCAGACUAAGCAGUGAUGUUGCUUUUAUUUUUGAAUUUUAAAUAGUCCCUUGGCAGCACUAUGUCUGUA [#05 K4 Theophylline B Same State]”, the “apparent KD of K4 kissing-loop reporter” value by setting is: (input ligand: FMN 200 uM) 96.4 nM; (input ligand: arginine 13.2 mM) 147 nM; (input ligand: none) 135 nM; under setting [1], 161 nM; under setting [2], 94.2 nM.

“GGCACUACAGCGGCCGCCACUGUUUAGUCCAUCGCUUGCGAGUGAUGUUCGUAGGUACUGCAGCUCAGGACCGGGCUGUCCUUAC [theeternabot_sameState_KL_Trp_B_34]”: the “apparent KD of K4 kissing-loop reporter” value (input ligand: FMN 200 uM) was determined as 475 nM; the “apparent KD of K4 kissing-loop reporter” value (input ligand: arginine 13.2 mM) stood at 393 nM; the “apparent KD of K4 kissing-loop reporter” value (input ligand: none) came out at 471 nM; the “apparent KD of K4 kissing-loop reporter” value under setting [1] was found to be 310 nM; the “apparent KD of K4 kissing-loop reporter” value under setting [2] is 388 nM.

For “ACGAUUUACAGAAGGAGCGUGUAUUUAUCUACAAUUUUCUUAGCGAGUGAUGUUCGUUAUACACAGGUAGGUCGCUGUAUAUCGA [JR_ExcArginiB_Sub013]”, the “apparent KD of K4 kissing-loop reporter” value came out at 185 nM (input ligand: FMN 200 uM); 214 nM (input ligand: arginine 13.2 mM); 201 nM (input ligand: none); 199 nM under setting [1]; 174 nM under setting [2].

“CUUGGAAGGACGGCCGCCACUGGGCAGUGAUGUUGCCCGACCAGGUAACGCAGUGAUGUUGCGACCAGGACCGGGUCCUAGGAAU [Exclusion Tryptophan B GF 24]”: the “apparent KD of K4 kissing-loop reporter” value stood at 161 nM (input ligand: FMN 200 uM); 140 nM (input ligand: arginine 13.2 mM); 155 nM (input ligand: none); 136 nM under setting [1]; 105 nM under setting [2].

For the sequence “CGCGCGCGCUGAGAGGCGCGCGCGAAUGAUACCAGUAUAUAAGAAUACCCUUGGCAGCAUAAGAAAGAUAUAGUGAUGUUGUAUA [SSTheophA.D]”, the “apparent KD of K4 kissing-loop reporter” value by setting is: (input ligand: FMN 200 uM) 75.3 nM; (input ligand: arginine 13.2 mM) 199 nM; (input ligand: none) 43.1 nM; under setting [1], 201 nM; under setting [2], 29 nM.
